Results taken from patent US20220144956A1 (published 2022).
Residue numbers refer to the chain shown, from its start.

B1: H1.21 L1 XENP35103 (antibody, V domains shown)
VH: QLQVQESGPGLVKPSETLSLTCTVSGGSISNSAFSWGWIRQPPGKGLEWIGSFYYGEKTYYNPSLKSRATISIDTSKSQFSLKLSSVTAADTAVYYCPRGPTMIRGVIDSWGQGTLVTVSS
VL: EIVLTQSPATLSLSPGERATLSCRASQSVRSYLAWYQQKPGQAPRLLIYDASNRATGIPARFSGSGSGTDFTLTISSLEPEDFAVYYCQQRSNWPPTFGQGTKVEIK
B2: H1 L1 XENP34287 (antibody, V domains shown)
VH: B1 VH with A33Y
VL: B1 VL
B3: H1.1 L1 XENP34288 (antibody, V domains shown)
VH: B1 VH with A33Y, M103V
VL: B1 VL
B4: XENP37385 – αCD5 (Cd5-A) x αTGFßRII (bispecific antibody)
heavy: EVQLKESGAELVRPGGSVKISCKGSGYTFTNFAIHWVKQSHIKTLEWIGLISTSSGDVSYNQKFKDKATMTVDKSSSTAYMELARLTSEDSAIYYCARHYGANNYFDYWGQGTLVTVSSASTKGPSVFPLAPSSKSTSGGTAALGCLVKDYFPEPVTVSWNSGALTSGVHTFPAVLQSSGLYSLSSVVTVPSSSLGTQTYICNVNHKPSDTKVDKKVEPKSCDKTHTCPPCPAPPVAGPSVFLFPPKPKDTLMISRTPEVTCVVVDVKHEDPEVKFNWYVDGVEVHNAKTKPREEEYNSTYRVVSVLTVLHQDWLNGKEYKCKVSNKALPAPIEKTISKAKGQPREPQVYTLPPSREEMTKNQVSLTCDVSGFYPSDIAVEWESDGQPENNYKTTPPVLDSDGSFFLYSKLTVDKSRWEQGDVFSCSVMHEALHNHYTQKSLSLSPGK
scFv-Fc: QLQVQESGPGLVKPSETLSLTCTVSGGSISNSYFSWGWIRQPPGKGLEWIGSFYYGEKTYYNPSLKSRATISIDTSKSQFSLKLSSVTAADTAVYYCPRGPTVIRGVIDSWGQGTLVTVSSGKPGSGKPGSGKPGSGKPGSEIVLTQSPATLSLSPGERATLSCRASQSVRSYLAWYQQKPGQAPRLLIYDASNRATGIPARFSGSGSGTDFTLTISSLEPEDFAVYYCQQRSNWPPTFGQGTKVEIKEPKSSDKTHTCPPCPAPPVAGPSVFLFPPKPKDTLMISRTPEVTCVVVDVKHEDPEVKFNWYVDGVEVHNAKTKPREEQYNSTYRVVSVLTVLHQDWLNGKEYKCKVSNKALPAPIEKTISKAKGQPREPQVYTLPPSREQMTKNQVKLTCLVKGFYPSDIAVEWESNGQPENNYKTTPPVLDSDGSFFLYSKLTVDKSRWQQGNVFSCSVMHEALHNHYTQKSLSLSPGK
light: EIVLTQSPTIMSASPGEQVTMTCRTNSSVSSSYLHWYQQKSGASPKLWIYGTSNLASGVPTRFSGSGSGTSYSLTISSVEAGDAATYFCQQYSGYPLTFGGGTKVEIKRTVAAPSVFIFPPSDEQLKSGTASVVCLLNNFYPREAKVQWKVDNALQSGNSQESVTEQDSKDSTYSLSSTLTLSKADYEKHKVYACEVTHQGLSSPVTKSFNRGEC
B5: XENP37388 – αCD5 (Cd5-B) x αTGFßRII (bispecific antibody)
heavy: QVTLKESGAELVRPGASVKLSCKASGYSFTSYWMNWVKQRPGQGLEWIGMIHPSDSETRLNQKFKDKATLTVDKSSSTAYMQLSSPTSEDSAVYYCARWGDHDDAMDFWGQGTMVTVSSASTKGPSVFPLAPSSKSTSGGTAALGCLVKDYFPEPVTVSWNSGALTSGVHTFPAVLQSSGLYSLSSVVTVPSSSLGTQTYICNVNHKPSDTKVDKKVEPKSCDKTHTCPPCPAPPVAGPSVFLFPPKPKDTLMISRTPEVTCVVVDVKHEDPEVKFNWYVDGVEVHNAKTKPREEEYNSTYRVVSVLTVLHQDWLNGKEYKCKVSNKALPAPIEKTISKAKGQPREPQVYTLPPSREEMTKNQVSLTCDVSGFYPSDIAVEWESDGQPENNYKTTPPVLDSDGSFFLYSKLTVDKSRWEQGDVFSCSVMHEALHNHYTQKSLSLSPGK
scFv-Fc: B4 scFv-Fc
light: DIVLTQSPASLSASVGESVTITCRPSENIYGYFAWYQQRQGKSPQLLVYNAKTLAEGVPSRFSGSGSGTHFSLKINSLQPEDFGTYYCQHHYGTPFTFGPGTKVDIKRTVAAPSVFIFPPSDEQLKSGTASVVCLLNNFYPREAKVQWKVDNALQSGNSQESVTEQDSKDSTYSLSSTLTLSKADYEKHKVYACEVTHQGLSSPVTKSFNRGEC
B6: XENP35399 – αCD5 (5D7) x αTGFßRII (bispecific antibody)
heavy: EVQLVESGGGVVQPGRSLRLSCTFSGFSLSTSGMGVGWIRQAPGKGLEWVAHIWWDDDVYYNPSLKSRLTITKDASTDTVYMELSSLRSEDTAVYYCVRRRATGTGFDYWGQGTLVTVSSASTKGPSVFPLAPSSKSTSGGTAALGCLVKDYFPEPVTVSWNSGALTSGVHTFPAVLQSSGLYSLSSVVTVPSSSLGTQTYICNVNHKPSDTKVDKKVEPKSCDKTHTCPPCPAPPVAGPSVFLFPPKPKDTLMISRTPEVTCVVVDVKHEDPEVKFNWYVDGVEVHNAKTKPREEEYNSTYRVVSVLTVLHQDWLNGKEYKCKVSNKALPAPIEKTISKAKGQPREPQVYTLPPSREEMTKNQVSLTCDVSGFYPSDIAVEWESDGQPENNYKTTPPVLDSDGSFFLYSKLTVDKSRWEQGDVFSCSVMHEALHNHYTQKSLSLSPGK
scFv-Fc: B4 scFv-Fc
light: NIVMTQSPSSLSASVGDRVTITCQASQDVGTAVAWYQQKPDQSPKLLIYWTSTRHTGVPDRFTGSGSGTDFTLTISSLQPEDIATYFCHQYNSYNTFGSGTKLEIKRTVAAPSVFIFPPSDEQLKSGTASVVCLLNNFYPREAKVQWKVDNALQSGNSQESVTEQDSKDSTYSLSSTLTLSKADYEKHKVYACEVTHQGLSSPVTKSFNRGEC
B7: H1 L1.47 XENP34610 (antibody, V domains shown)
VH: B1 VH with A33Y
VL: B1 VL with N93Q
B8: H1 L1.45 XENP34608 (antibody, V domains shown)
VH: B1 VH with A33Y
VL: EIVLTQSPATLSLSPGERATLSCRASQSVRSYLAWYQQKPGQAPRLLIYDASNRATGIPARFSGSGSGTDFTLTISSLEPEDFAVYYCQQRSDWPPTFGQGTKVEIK
B9: H1 L1.61 XENP34624 (antibody, V domains shown)
VH: B1 VH with A33Y
VL: B1 VL with V104L
B10: H1 L1.53 XENP34616 (antibody, V domains shown)
VH: B1 VH with A33Y
VL: B1 VL with W94Y
B11: H1 L1.46 XENP34609 (antibody, V domains shown)
VH: B1 VH with A33Y
VL: B1 VL with N93S
B12: H1 L1.59 XENP34622 (antibody, V domains shown)
VH: B1 VH with A33Y
VL: B1 VL with Q100G
B13: H1 L1.56 XENP34619 (antibody, V domains shown)
VH: B1 VH with A33Y
VL: B1 VL with P96L
B14: H1 L1.60 XENP34623 (antibody, V domains shown)
VH: B1 VH with A33Y
VL: B1 VL with Q100P
B15: H1 L1.55 XENP34618 (antibody, V domains shown)
VH: B1 VH with A33Y
VL: B1 VL with P96I
B16: XENP35127 H1.48 L1 (antibody, V domains shown)
VH: B1 VH with A33Y, Y54D
VL: B1 VL
B17: XENP35120 H1.29 L1 (antibody, V domains shown)
VH: B1 VH with A33Y, S35T
VL: B1 VL
B18: XENP35123 H1.36 L1 (antibody, V domains shown)
VH: B1 VH with A33Y, G37S
VL: B1 VL
B19: XENP35122 H1.33 L1 (antibody, V domains shown)
VH: B1 VH with A33Y, G37A
VL: B1 VL
B20: XENP35128 H1.50 L1 (antibody, V domains shown)
VH: B1 VH with A33Y, Y54K
VL: B1 VL
B21: XENP35119 H1.21 L1 (antibody, V domains shown)
VH: B1 VH
VL: B1 VL
B22: XENP34305 H1 L1 (antibody, V domains shown)
VH: B1 VH with A33Y
VL: B1 VL

Each binder was assayed against T1, human TGFßRII (antigen of the Octet experiments) (human, UniProt P37173 23-166) (assay: BLI (Octet)).
T1 sequence (P37173 23-166): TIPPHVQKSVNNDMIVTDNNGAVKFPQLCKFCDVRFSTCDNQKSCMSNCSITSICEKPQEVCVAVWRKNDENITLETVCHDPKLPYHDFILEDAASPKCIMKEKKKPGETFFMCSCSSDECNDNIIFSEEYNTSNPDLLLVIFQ

**Q.** For B1, which Kd is on record?
**A.** The Kd was 0.374 nM.

**Q.** With B2 as the binder, how does the Kd read?
**A.** Its Kd is 0.112 nM.

**Q.** How did the Kd turn out when B3 was run?
**A.** The Kd was 0.352 nM.

These binders were tested against Cyno (cynomolgus monkey) (assay: Octet).

**Q.** With B4 as the binder, how does the Kd read?
**A.** Its Kd is 11.3 nM.

**Q.** With B5 as the binder, how does the Kd read?
**A.** Its Kd is 0.74 nM.

**Q.** With B6 as the binder, how does the Kd read?
**A.** The Kd was 72 nM.

Molecular target: T1, human TGFßRII (antigen of the Octet …)
Assay: BLI (Octet)
Remark: another data set of the same source

**Q.** How did the Kd turn out when B7 was run?
**A.** Its Kd is 0.296 nM.

**Q.** With B8 as the binder, how does the Kd read?
**A.** The Kd was 0.604 nM.

**Q.** B9 was tested. Which Kd did it give?
**A.** The Kd was 0.642 nM.

**Q.** For B10, which Kd is on record?
**A.** The Kd was 0.596 nM.

**Q.** With B11 as the binder, how does the Kd read?
**A.** The Kd was 0.666 nM.

**Q.** With B12 as the binder, how does the Kd read?
**A.** The Kd was 0.311 nM.

**Q.** Which Kd does the source give for B13 here?
**A.** Its Kd is 0.001 nM.

**Q.** Which Kd does the source give for B14 here?
**A.** Its Kd is 0.888 nM.

**Q.** B15 was tested. Which Kd did it give?
**A.** Its Kd is 38 nM.

These binders were tested against T1, human TGFßRII (antigen of the Octet …) (assay: Octet).

**Q.** How did the Kd turn out when B16 was run?
**A.** The Kd was 35 nM.

**Q.** With B17 as the binder, how does the Kd read?
**A.** The Kd was 4.6 nM.

**Q.** Which Kd does the source give for B18 here?
**A.** The Kd was 5.1 nM.

**Q.** B19 was tested. Which Kd did it give?
**A.** Its Kd is 3.42 nM.

**Q.** B20 was tested. Which Kd did it give?
**A.** The Kd was 31.4 nM.

**Q.** Which Kd does the source give for B21 here?
**A.** The Kd was 2.79 nM.

**Q.** B22 was tested. Which Kd did it give?
**A.** Its Kd is 2.92 nM.
